In test [1] the test system is RAJI cells stably expressing GLuc. As to the kind of experiment: GLuc cell death assay, RAJI-GLuc target cells.
Excerpt: Cells were left unselected or selected with puromycin and expanded.
The subject of test [2] is Jurkat cells stably expressing MPL and GLuc. As to the kind of experiment: GLuc cell death assay, Jurkat-MPL-GLuc target cells. The following applies: T cells, puromycin selected, E:T 10:1, 4 hours.
The next test relates to RAJI-MPL cells. As to the kind of experiment: Jurkat-NFAT-EGFP reporter assay, co-culture with RAJI-MPL or RAJI-vector cells (Table 25). The following applies: RAJI-MPL cells compared with RAJI-vector cells. The test is classed as cell-based, human. An excerpt:
(§1) Cells were subsequently co-cultured with MPL-expressing HEL.92.1.7 (HEL) cells. […] CAR construct with HEL cells. The experiment was repeated by co-culturing the Jurkat-NFAT-EGFP cells with either RAJI cells, which have weak MPL expression, or with RAJI-MPL cells that were engineered to ectopically express human MPL receptor.
Background: A reporter such as luciferase makes a cellular process visible.

The subject of test [3] is HEL cells stably expressing GLuc. Description: GLuc cell death assay, HEL-GLuc target cells.
Description: The blood samples to isolate Peripheral blood mononuclear cells (PBMCs) were obtained from healthy de-identified adult donors. PBMC were isolated from buffy coats by Ficoll-Hypaque gradient centrifugation and re-suspended in XVIVO medium (Lonza) supplanted with 10 ng/ml soluble anti-CD3, 10 ng/ml soluble anti-CD28 and 100 IU recombinant human-IL2. […] The PBMC expressing the indicated CARs and uninfected PBMC were co-cultured with HEL-GLuc target cells for 4 h and lysis of target cells measured by the single-step homogenous GLuc assay by injecting 0.5× CTZ assay buffer as described above.
Cells were selected with puromycin and expanded.
Cells were subsequently co-cultured overnight with HEL.92.1.7 cells that had been engineered to express GLuc.
Test [4] relates to MPL-expressing HEL.92.1.7 (HEL) cells. As to the kind of experiment: Jurkat-NFAT-EGFP reporter assay, co-culture with HEL cells (Table 25). The test is classed as cell-based, human. The following applies: FACS.
Excerpt: as §1

B1: CD8SP-CD19Bu12-(vL-vH)-Myc-BBz-T2A-PAC(082815-P08): CD19 CAR with scFv from humanized CD19 antibody huCD19-Bu12, 41BB and CD3z (protein)
chain: MALPVTALLLPLALLLHAARPDEIVLTQSPATLSLSPGERATLSCSASSSVSYMHWYQQKPGQAPRLLIYDTSKLASGIPARFSGSGSGTDFTLTISSLEPEDVAVYYCFQGSVYPFTFGQGTKLEIKRGGGGSGGGGSGGGGSQVQLQESGPGLVKPSQTLSLTCTVSGGSISTSGMGVGWIRQHPGKGLEWIGHIWWDDDKRYNPALKSRVTISVDTSKNQFSLKLSSVTAADTAVYYCARMELWSYYFDYWGQGTLVTVSSTREQKLISEEDLAKPTTTPAPRPPTPAPTIASQPLSLRPEACRPAAGGAVHTRGLDFACDIYIWAPLAGTCGVLLLSLVITLYCKRGRKKLLYIFKQPFMRPVQTTQEEDGCSCRFPEEEEGGCELRVKFSRSADAPAYQQGQNQLYNELNLGRREEYDVLDKRRGRDPEMGGKPRRKNPQEGLYNELQKDKMAEAYSEIGMKGERRRGKGHDGLYQGLSTATKDTYDALHMQALPPRSSGSGEGRGSLLTCGDVEENPGPHMTEYKPTVRLATRDDVPRAVRTLAAAFADYPATRHTVDPDRHIERVTELQELFLTRVGLDIGKVWVADDGAAVAVWTTPESVEAGAVFAEIGPRMAELSGSRLAAQQQMEGLLAPHRPKEPAWFLATVGVSPDHQGKGLGSAVVLPGVEAAERAGVPAFLETSAPRNLPFYERLGFTVTADVEVPEGPRTWCMTRKPGA
modifications: listed as DNA
On to B1, for which, in test [1] (RAJI-pLenti-Gluc cells incubated with the CAR-T cells), the “cell death (increase in Gluc activity)” value is recorded as “significant induction of cell death”. Besides, in test [1] (T cells with or without puromycin selection, E:T 10:1, 96 hours), the “GLuc activity (lysis of target cells)” value is recorded as “increase in GLuc activity”.

B2: CD8SP-175-(vL-vH)-Myc-CD28z-T2A-PAC(031615-Q04): CAR construct targeting MPL, 175 scFv, CD28 costimulatory domain (protein)
chain: MALPVTALLLPLALLLHAARPDQIVLTQSPAIMSASPGEKVTISCSASSSVSYMYWYQQKPGSSPKPWIYRTSNLASGVPARFSGSGSGTSYSLTISNMEAEDAAAYYCQQYHSYPTTFGGGTKLEVKGGGGSGGGGSGGGGSEVQLVESGGGLVQPKGSLKLSCAASGFSFNTYAMNWVRQAPGKGLEWIAHIRSKSNNFATYYADSVKDRFSISRDASENILFLQMNNLKTEDTAMYYCVRQGGDFPMDYWGQGTSVTVSSTREQKLISEEDLKIEVMYPPPYLDNEKSNGTIIHVKGKHLCPSPLFPGPSKPFWVLVVVGGVLACYSLLVTVAFIIFWVRSKRSRLLHSDYMNMTPRRPGPTRKHYQPYAPPRDFAAYRSRVKFSRSADAPAYQQGQNQLYNELNLGRREEYDVLDKRRGRDPEMGGKPRRKNPQEGLYNELQKDKMAEAYSEIGMKGERRRGKGHDGLYQGLSTATKDTYDALHMQALPPRSSGSGEGRGSLLTCGDVEENPGPHMTEYKPTVRLATRDDVPRAVRTLAAAFADYPATRHTVDPDRHIERVTELQELFLTRVGLDIGKVWVADDGAAVAVWTTPESVEAGAVFAEIGPRMAELSGSRLAAQQQMEGLLAPHRPKEPAWFLATVGVSPDHQGKGLGSAVVLPGVEAAERAGVPAFLETSAPRNLPFYERLGFTVTADVEVPEGPRTWCMTRKPGA
modifications: listed as DNA
notes: CAR construct targeting MPL, 175 scFv, CD28 costimulatory domain
On to B2, for which the “GLuc activity (lysis of target cells)” value is recorded as “stronger” in test [2] and “stronger” in test [3] (T cells, puromycin selected, E:T 10:1, 4 hours). Besides, the “EGFP expression (NFAT-EGFP reporter)” value (in the test on RAJI-MPL cells; in test [4]) was “strongest” each time. In addition, the “killing of HEL-GLuc cells” value in test [3] (CAR-expressing PBMC, 4 h, versus uninfected PBMC) was “increased killing”.

(Values after patent US20240166755A1, “CHIMERIC ANTIGEN RECEPTORS TARGETING CANCER” (University of Southern California, priority 2016, published 2024).)
